Consider 8 molecules from patent publication US20230416380A1 (AJOU UNIVERSITY INDUSTRY ACADEMIC COOPERATION FOUNDATION, published 2023).

Test [1] deals with T1, sIL-5Rα (extracellular domain of human IL-5 receptor alpha subunit, Asp1-Asn313 of SEQ ID NO: 19, C-terminal Avi tag and 6×His tag, expressed in HEK293F) (human) (UniProt Q01344).
T1 sequence: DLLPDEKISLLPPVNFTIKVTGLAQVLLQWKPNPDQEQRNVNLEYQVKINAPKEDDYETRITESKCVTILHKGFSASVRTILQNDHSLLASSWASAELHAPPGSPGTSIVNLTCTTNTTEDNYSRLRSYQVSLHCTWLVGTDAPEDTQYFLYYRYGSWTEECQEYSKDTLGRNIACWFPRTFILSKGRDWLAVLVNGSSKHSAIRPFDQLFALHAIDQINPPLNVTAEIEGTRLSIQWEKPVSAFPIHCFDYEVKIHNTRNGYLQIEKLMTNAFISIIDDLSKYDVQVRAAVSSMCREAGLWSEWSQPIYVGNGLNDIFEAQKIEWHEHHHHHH
In words: binding competition ELISA: IL-5-mFc coated (competitor), antibody dilutions plus 100 nM IL-5Rα, anti-his-HRP.

For test [2], the target named is T1, sIL-5Rα (extracellular domain of human IL-5 receptor alpha subunit, Asp1-Asn313 of SEQ ID NO: 19, C-terminal Avi tag and 6×His tag, expressed in HEK293F) (human). The test is described as follows: BLI (Octet QKe), antibody on AHC sensor, sIL-5Rα in solution, 1:1 model.
The target of test [3] is T2, human IL-5Rα on cells (TF-1/IL-5Rα cells stably overexpressing IL-5Rα; human eosinophils) (human) (UniProt Q01344).
T2 sequence (looked up): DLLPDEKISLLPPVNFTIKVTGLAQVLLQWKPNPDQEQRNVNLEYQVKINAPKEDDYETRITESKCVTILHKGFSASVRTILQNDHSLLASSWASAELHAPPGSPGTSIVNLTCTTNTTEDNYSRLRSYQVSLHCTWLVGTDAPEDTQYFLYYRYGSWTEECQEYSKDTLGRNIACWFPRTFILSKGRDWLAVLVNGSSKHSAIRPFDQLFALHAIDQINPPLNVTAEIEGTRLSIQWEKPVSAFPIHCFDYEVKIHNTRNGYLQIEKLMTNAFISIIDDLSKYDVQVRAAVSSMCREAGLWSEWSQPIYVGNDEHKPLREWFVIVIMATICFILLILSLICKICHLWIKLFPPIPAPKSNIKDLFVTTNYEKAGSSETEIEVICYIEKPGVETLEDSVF
The test is described as follows: cell-based or functional assay.

The target of test [4] is T3, human IL-5Rα on cells (TF-1/IL-5Rα cells stably overexpressing IL-5Rα; human eosinophils) (human, UniProt Q01344 21-420).
T3 sequence (looked up): T2 sequence (looked up)
The test is described as follows: cell-based or functional assay.

The target of test [5] is T4, sIL-5Rα (extracellular domain of human IL-5 receptor alpha subunit, Asp1-Asn313 of SEQ ID NO: 19, C-terminal … (human, UniProt Q01344 21-333)).
T4 construct: also called sIL-5Rα antigen protein
T4 sequence: T1 sequence
In words: binding competition ELISA: IL-5-mFc coated (competitor), antibody dilutions plus 100 nM IL-5Rα, anti-his-HRP; 5R65 antibody; IL-5-mFc coated, 100 nM IL-5Rα, anti-his-HRP. On the procedure:
(§1) Prior to biological efficacy evaluation, binding competition ELISA was performed to determine whether or not anti-IL-5Rα humanized antibodies bind competitively with IL-5 to the IL-5 binding site of IL-5Rα. Specifically, IL-5 (Uniprot code: P05113, Ile20-Ser134) was fused to the G4S linker and the heavy-chain constant region (hinge-CH2-CH3) of mouse IgG2a, was subjected to transient transfection and purified (FIG. 5C). The purified IL-5-mFc proteins were immobilized at a density of 100 ng/well on a 96-well plate at room temperature for 1 hour, and blocked using 0.1% PBST containing 2% skim milk at room temperature for 1 hour. After discarding the solution and then washing the same three times with 0.1% PBST, mixtures of anti-IL-5a antibody [2-fold dilution at 2,000 nM] at various concentrations were prepared and each mixture was added in an amount of 25 μl/well to the blocked plate, 100 nM IL-5Rα was further added at 25 μl/well for 1 hour, followed by reaction at room temperature for 1 hour. […] After discarding the solution and washing three times with PBST, a TMB solution was added in an amount of 50 μl/well, color development was induced at room temperature for 2 minutes and 30 seconds, the reaction was stopped using H₂SO₄ (2N), and the absorbance at 450 nm was measured.

Test [6] deals with T4, sIL-5Rα (extracellular domain of human …). In words: BLI (Octet QKe), comparison of KD values. On the procedure: (§2) Specifically, 1× kinetic buffer was prepared by diluting 10× kinetic buffer (ForteBio, 18-1105) in PBS. […] Affinity was calculated with Octet Data Analysis software 11.0 in a 1:1 binding model.
For test [7] the target is unchanged. In words: BLI (Octet QKe), antibody on AHC sensor, sIL-5Rα in solution, 1:1 model. On the procedure:
as §2

For test [8] the target is unchanged. In words: binding competition ELISA: IL-5-mFc coated (competitor), antibody dilutions plus 100 nM IL-5Rα, anti-his-HRP; 5R86 antibody; IL-5-mFc coated, 100 nM IL-5Rα, anti-his-HRP. On the procedure:
as §1

Test [9] has the same target. In words: competition ELISA: IL-5-mFc coated at 100 ng/well, antibody dilution series mixed with His-tagged sIL-5Rα, bound sIL-5Rα detected with anti-His-HRP; blocked ligand IL-5-mFc.
Test [10] shares this target. The test is described as follows: BLI (Octet QKe), antibody on AHC sensor, sIL-5Rα in solution, 1:1 model. On the procedure:
as §2
(§3) Therefore, it was confirmed that the order of affinity was benralizumab>m2B7>hu2B7.
This is another data set of the same source.

The target is the same in test [11]. In words: BLI (Octet QKe), antibody on sensor, sIL-5Rα in solution, 1:1 model. On the procedure: as §2, §3

Positions count from the first letter of the chain named.

B1: benralizumab analogue (benralizumab variable regions with an IgG1 constant region) (antibody, INN chains, looked up, V domains shown)
VH: EVQLVQSGAEVKKPGASVKVSCKASGYTFTSYVIHWVRQRPGQGLAWMGYINPYNDGTKYNERFKGKVTITSDRSTSTVYMELSSLRSEDTAVYLCGREGIRYYGLLGDYWGQGTLVTVSS
VL: DIQMTQSPSSLSASVGDRVTITCGTSEDIINYLNWYQQKPGKAPKLLIYHTSRLQSGVPSRFSGSGSGTDFTLTISSLQPEDFATYYCQQGYTLPYTFGQGTKVEIK
modifications: fucosylated IgG1
In the case of B1, the IC50 in [1] was determined as 9.8 nM. Moreover, in test [2], the Kd was 26.8 nM, the dissociation rate constant (koff) was determined as 0.0011 s⁻¹ and the kon was found to be 41100 M⁻¹ s⁻¹. In test [3], this molecule returned an absolute IC50 (Abs IC50), inhibition of IL-5-dependent proliferation of TF-1/IL-5Rα cells of 1.99 nM.

B2: 5R65.7 (anti-IL-5Rα humanized antibody, affinity matured from 5R65) (antibody, V domains shown)
VH: QVQLVQSGAEVKKPGSSVKVSCKASGYTFTSYWINWVRQAPGQGLEWIGHIYPNKNENYYNHKFKDKATLTVDKSTNTAYMELSSLRSEDTAVYYCTREFYGRQYYQAMDYWGQGTTLTVSS
VL: DIQMTQSPSTLSASVGDRVTITCKASQNVGTAVAWYQQKPGKAPKLLIYWASTRHTGVPDRFSGSGSGTDFTLTISSLQPDDFATYYCQQFGRYPYTFGSGTKVEVK
Regarding B2, the “abs IC50, inhibition of IL-5-dependent proliferation of TF-1/IL-5Rα cells” value in [4] was 0.57 nM.

B3: 5R65 (anti-IL-5Rα humanized antibody) (antibody, V domains shown)
VH: B2 VH with E99D, F100Y, Q104S, Q107Y
VL: B2 VL
notes: Only VH-CDR2 of hu2B7 was diversified, the light chain is that of hu2B7; also called 5R65 antibody
Take B3: the IC50 in test [5] came to 9.5 nM. The “affinity relative to the benralizumab analogue” value in test [6] is about 2 fold.

B4: 5R86 (anti-IL-5Rα humanized antibody) (antibody, IgG1, V domains shown)
VH: QVQLVQSGAEVKKPGSSVKVSCKASGYTFTSYWINWVRQAPGQGLEWIGHIYPTSSVKFYNNKFKDKATLTVDKSTNTAYMELSSLRSEDTAVYYCTRDYYGRSYYYAMDYWGQGTTLTVSS
VL: B2 VL
In test [7], B4 returned an equilibrium dissociation constant (Kd) of 11.8 nM, a koff of 0.000325 s⁻¹ and a kon of 27600 M⁻¹ s⁻¹. In test [8], the half-maximal inhibitory concentration (IC50) was 14.1 nM.

B5: 5R68 (anti-IL-5Rα humanized antibody) (antibody, IgG1, V domains shown)
VH: B4 VH with S55A, S56T, V57I, K58A, F59V, N62D
VL: B2 VL
In [7], B5 registered a Kd of 24.1 nM, a koff of 0.000566 s⁻¹ and an on-rate constant (kon) of 23500 M⁻¹ s⁻¹. In addition, the 50% inhibitory concentration (IC50) in test [9] amounted to 28.8 nM.

B6: 5R80 (anti-IL-5Rα humanized antibody) (antibody, IgG1, V domains shown)
VH: B4 VH with T54Q, S55K, S56T, V57L, K58T, F59I, N62H
VL: B2 VL
In test [7], B6 registered a Kd of 16.2 nM, a koff of 0.000365 s⁻¹ and an association rate constant (kon) of 22500 M⁻¹ s⁻¹. Also, the IC50 in test [9] turned out to be 24.2 nM.

B7: hu2B7 (humanized m2B7) (antibody, V domains shown)
VH: B4 VH with T54S, S55E, V57Y, K58T, F59N, N62Q
VL: B2 VL
notes: Expressed from plasmids encoding HC and LC and purified on protein A; also called humanized antibody hu2B7
In test [10], B7 displayed an equilibrium dissociation constant (Kd) of 47.8 nM, a koff of 0.00106 s⁻¹ and a kon of 22200 M⁻¹ s⁻¹. For the same molecule, the IC50 in test [9] is 57.4 nM.

B8: m2B7 (anti-IL-5Rα mouse antibody) (antibody, V domains shown)
VH: QVQLQQPGAELVRPGASVKLSCKASGYTFTSYWINWVKQRPGQGLEWIGHIYPSESYTNYNQKFKDKATLTVDKSSSTAYMQLSSPTSEDSAVYYCTRDYYGRSYYYAMDYWGQGTSVTVSS
VL: DIVMTQSHKFMSTSVGDRVSITCKASQNVGTAVAWYQQKPGQSPKLLIYWASTRHTGVPDRFTGSGSGTDFTFTISNVQSEDLADYFCQQFGRYPYTFGGGTKLEIK
notes: also called mouse antibody m2B7; mB7
On to B8, for which, in test [11], the affinity, expressed as Kd, was 40.2 nM; the koff was determined as 0.000834 s⁻¹; the kon worked out at 20700 M⁻¹ s⁻¹.
